Laboratory results taken from the nanobody polyreactivity screen of Harvey et al. (2022).

Experiment: yeast display, Sf9 membrane polyspecificity reagent, FACS + sequencing; frameworks hold sequencing errors
Outline: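 A nanobody's polyreactivity label depends on the gate it was sorted from. Yeast display cells were stained with 10% biotinylated, detergent-solubilized Sf9 membrane reagent for 1 hour at 4 °C, enriched on streptavidin microbeads and sorted by FACS. The low and high (top ~1%) gates were set on anti-HA fluorescence for expression and streptavidin fluorescence for reagent binding.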

| Sequence | polyreactivity (PSR sort gate) |
| --- | --- |
| QVQLVESGGGLVQAGGSLRLSCAASGGTINGNTMGWYRQAPGKERELVAVIDWSGGSTYYADSVKGRFTISRDNAKNTVYLQMNSLKPEDTAVNYCNADSDAQFREPKGMYYWGQGTQVTLSS | low polyreactivity |
| QVQLVESGGGLVQAGGSLRLSCAASGSIIRRYAMGWYRQAPGKERELVAAISSNGGSTYYADSVKGRFTISRDNAKNTVYLQMNSLKPEDTAVYYCNKLSSYVVARRTTEYDYWGQGTQVTVSS | high polyreactivity |
| QVQLVESGGGLVQAGGTLRLSCAASGRTFPLYAMGWYRQAPGKERELVAAISSSGGNTYYADSVKGRFTISRDNAKNTVYLQMNSLKPEDTAVYYCNADVSTNSDRLQLDYWGQGTQVTVSS | low polyreactivity |
| QVQLVESGGGLVQAGGSLRLSCAASGFIFSNNAMGWYRQAPGKERELVASISSSSRTYYADSVKGRFTISRDNAKNTVYLQMNSLKPEDTAVYYCAAVFRWWGTRVDYWGQGTQVTVSS | high polyreactivity |
| QVQLVESGGGLVQAGGSLRLSCAASGSIIYQYAMGWYRQAPGKERELVAAITWSGGSTYYADSVKGRFTISRDNAKNTVYLQMNSLKPEDTAVYYCAAYAYGGRINGYRTYRYNYWGQGTQVTVSS | high polyreactivity |
| QDQLVESGGCLVQAGGSLRLSCADSGSNFWYYAMVWYRQAPGKERELVAAITSAGSTYYADSVKGRFTISRDNAKITVYLQINSLKPEDTAVYYCAKVKAWSEYYYWGQGTQVTVSS | low polyreactivity |
| QVQLVESGGGLVQAGGSLRLSCAASGSTFPFYAMGWYRQAPGKERELVAAIPSGGSTYADSVKGRFTISRDNAKNTVYLQMNSLKPEDTAVYYCAASWPRWWRFGYWGQGTQVTVSS | low polyreactivity |
| QDQLGESGGGLVQAGGSLRLSGAASGSTFSRNAMGWYRQAPGKERELVAAISRSGGSTHYADSVKGRFTISRDNAKNTVYLQMNSQKPEDTAVYYCAARVPRGDLPGYHYAYYYWGQGTQVTVSS | high polyreactivity |
| QVQLVESGGGLVQAGGSLRISCAASGRIYYRYAMGWYRQAPGKERELVASISGSGGRTYYADSVKGRFTISRDNAKNTVYLQMNSLKPEDTAVYYCAARIRPSYDWGQGTQVTVSS | high polyreactivity |
| QVQLVESGGGLVQAGGSLRLSCAASGRIFTRNAMGWYRQAPGKEREFVAAISYRGGSTYYADSVKGRFTISRDYAKNTVYLQMNSLKPEDTAVYYCAAEPYIQWVYYGGNGRRYGYWGQGTQVTVSS | high polyreactivity |
| QVQLVESGGGLVQAGGSLRLSCAASGSIFEPYVMGWYRQAPGKERELVAAIRQTGGSTYYADSVKGRFTISRDNAKNTVYLQMNSLKPEDTAVYYCNAEQNPSALYDYRGVEGEMGYWGQGTQVTVSS | low polyreactivity |
| QVQLVESGGGLVQAGGSLRLSCAASGSIFYTNVMGWYRQAPGKERELVAVISSGGSTYYADSVKGRFTISRDNAKNTVYFQMNSLKPEDTAGYYCNADSVSSPPYYDYWGQGTQVTVSS | high polyreactivity |
| QVQLVESGGGLDQAGGSLRLSCAASGSIFSDNVMGWYRQAPGKERELVAAIRDGDTTNYADSVKGRFTISRDNAKNTVYLQMNSLKPEDTAVYYCAAVQDSSPDYSYAYLDGDRDYWGQGTQVTVSS | low polyreactivity |
| QVQLVESGGGLVQAGGSLRLSCAASGSIFRLYAMGWYRQAPGKERELVATITSGGNTYADSVKGRFTISRDNAKNTVYLQMNSLKPEDTAVYYCATTVYAYSYGYEYWGQGTQVTVSS | high polyreactivity |
| QDQLGDSGGCLVQAGGSLRLSCAASGITFKNYAMVWYRQAPGKEREIVAAISASGGRTYYADSVKGRFTISRDNAKNTVYFPMNSLIPEDTAVYYCNAVYIGSRSRYEYDYWGQGSQVTVSS | high polyreactivity |
| QVQLVESGGGLVQAGGSLRFSCAASGSIFSLNTMGWYRQAHGKERELVAAITRGGSTYYADSVKGRFTISRDNAKNTVYLQMNSLKPEDTAVYYCAAVPGGNISAPYDYWGQGTQVTVSS | high polyreactivity |
| QFQLVESGGGLVQAGGSLRLSCAASGRTFGFYAMGWYRQAPGKERELVASITWRGGRTYYADSVKGRFTISRDNAKNTVYLQMNSLKPEDTAVYYCAAVTFSYDGYDYWGQGTQVTVSS | low polyreactivity |
| QVQLVESGGGLVQAGGSLRLSCAASGRTFGKYAMGWYSQAPGKERELVAAISSGGTTYYADSVKGRFTISRDNAKNTVYLQMNSVIPEDTAVYYCAADPRYPYNYWGQGTQVTVSS | low polyreactivity |
| QVQLVESVGGLVKAGGSLRLSCAASGRTFYNAMGWYRQAPGKERELVAAISSDGSTYYADSVKGRFTISRDNAKNTVYLQMNSLKPEDTAVYYCARDLGSWYYQVRFGYWGQGTQVTVSS | high polyreactivity |
| QVQLVESGGGLVQAGGSLRLSCAAYGLTFYGNAMGWYRQAPGKERELVAAISRGGRTYYADSVKGRFTISRDNAKKTVYLQRNSLKPEDTAVYYCATVVSRVKQPFDMDYWGQGTQVTVSA | low polyreactivity |
| QVQLVESGGGLVQAGGSLRLSCAASGFIFATYGMGWYRQAPGKERELVATITSGGRTYYADSVKGRFTISRDNAKNTVYLQMNSLKPDDTAVYYCARASRRYWSMDYWGQGTQVSVSS | high polyreactivity |
| QVQLVESGGGLVQAGGSLRLSCAASGSTFRYYAMGWYRQAPGKERELVAAITRSGGSTSYADSVKGRFTISRDNAKNTVYLQMNSLKPEDTAVYYCAARFYRPYYARQGYNYWGQGTQVTVSS | high polyreactivity |

| Sequence | polyreactivity (PSR sort gate) |
| --- | --- |
| QVQLVESGGGLVQAGGSLRLSCAASGSTFKYYVMGWYRQAPGKEREFVAAITLRGGRTYYADSVKGRFTISRDNAKNTVYLQMNSLKPEDTAVYYCNAAYYLGWAHGTGRVEYDYWGQGTQVTVSS | high polyreactivity |
| QVQLVESGGGLVQAGGSLRLSCAASGSIFGWYTMGWYRQAPGKERELVAAITWRGGTTYYADSVKGRFTISRDNAKNTVYLQMNSLKPEDTAVYYCATTRYPRSYQEFGYWGQGTQVTVSS | high polyreactivity |
| QVQLVESGGGLVQAGGSLRLSCAASGSTFGPYTMGWYRQAPGKERELVATISSGGSTYYADSVKGRFTISRDNAKNTVYLQMNSLKPEDTAVYYCARDSYWEMDYWGQGTQVTVSS | low polyreactivity |
| QVQLVESGGGLVQAGGSLRLSCAASGSTFTENAMGWYRQAPGKERELVATISTSDGSTHYADSVKGRFTISRDNAKNTVYLQMNSLKPEDTAVYYCAARPDYFLWHGYYTRRHYYWGQGTQVTVSS | low polyreactivity |
| QVQLVESGGGLVQAGGSLRLSCAASGLTFVNSTMGWYRQAPGKEWEFVAAITSSGGSSTYYADSVKGRFTISRDNAKNTVYLQMNSLKPEDTAVYDCAAGFSRYVDIVILTVYTGDYWGQGTQVTVSS | low polyreactivity |
| QVQRVESGGGLVQARASLRLSCAASGSIFPHYAMGWYRQAPGKERDLVATIRSRSGSTYYADSVKGRFTISRDNAKNTVYLQMNSLKPEDTAVYYCAARYYKERYWGQGTQVTVSS | low polyreactivity |
| QDQLVESVGCLVQAGGSLRLSCAASGLTIQRNDMGWYRQAPGKEREFVATITSNAGSTYYADSVKGRFTISRDNAKNTVYLQKNSLKPEDTAVYYCARERWWGGSDYWGQGTQVTVSS | high polyreactivity |
| QVQLVESGGGLVQAGGSLRLSCAASGFIFAVNAMGWYRQAPGKERELVATIRATTTSTYADSVKGRFTISRDNAKNTVYLQMNSLKPEDTAVYYCATDVRTISFEYDYWGQGTQVTVSS | low polyreactivity |
| QVQLVESGGGLVQAGGSLRLSCAASGSIFGRYAMGWYRQAPGNERELVAGICSRGTSTYYADSVKGRFTISRDNAKNTVYLQMNSLKPEDTAVYYCNAYPYYIVGSRYDYWGQGTQVTVSS | high polyreactivity |
| QVQLVESGGGIVQAGGSLRLSCAASGRVFTYYAMGWYRQAPGKERELVAAISSGGNTYYADSVKGRFTISRDNAKNTVFLQMNSLKPEDTAVYYCAAAGRPRYESNYWGQGTQVSVSS | high polyreactivity |
| QVQLVESGGGLVQAGGSLRLSCAASGFIFTVNAMGWYRQAPGKERELVAAITQSGGNTSYADSVKGRFTISRDNAKNTVYLQMNSLTPEDTAVYYCNASSDTSRYGVSTYYYWGQGTQVTVSS | low polyreactivity |
| QVHLVESGRGLVQAGRSLRLSCAASGLTFDWYDMGCYRQAPGKERELVAAITSVGSTYYADSVKGRFTISRDNAKKTVYLQMNSLKPEDTAVYYCGVEGVIWSFWPYEYWGQGTQVTVSS | high polyreactivity |
| QVQLQESGGGLVQAGGSLLSCAASGTISYYREMGWYRQAPGKERELVAGIGVGTITYYADSVKGRFTISRDNAKNTVYLQMNSLKPEATAVYYCAAHIDGNDSHAYWGQGTQVTVSS | low polyreactivity |
| QVQLVESGGGLVQAGGSLRLSCAASGSTFRYYTMGWYRQAPGKERELVAAITWSGGSTYYADSVKGRFTISRDNAKNTVNLQMNSLKPEDTEVYYCNKEDVGSSESDYWGQGTQVTVSS | high polyreactivity |
| QVQLVESGGGLVQAGGSLRLSCAASGRIFAWNAMGWYRQAPGKERELVAAITRGTNTYYADSVKGRFTISRDNAKNTVYLQMNSLKPEDTAVYYCAARLPYNAIGYYYWGQGTQVTVSS | low polyreactivity |
| QVQLVESGGGLVQARGSLRLSCAASGNIFYRYAMGWYRQATGKERELVAAISFSGGGTYYADSVKGRFTISRDNAKNTVYLQMNSLKPEDTAVYYCAAYRRGCYDYWGQGTQVTVSS | high polyreactivity |
| QVQLVESGGGLVQAGGSLRLSCAASGIIFTPYTMGWYRQAPGKERELVAAITGSGGSTYYADSVKGRFTISRDNAKNTVYLQMNSLKPEDTAVYYCAAYKQYRFYRYDYWGQGTQVTVSS | high polyreactivity |
| QVQLVESGGGLVQAGGSLRLSCAASGRTFYINAMGWYRQAPGKERELVAGINSRGGSTYADSVKGRFTISRDNAKNTVYLQMNSLNPEDTAVYYCNARRKYLGYNYWGQGTQVTVSS | high polyreactivity |
| QVKLVESGGGLVQAGGSLRLSCAASGSIFQGYAMGWYRQAPGKERELVAAISGRGGSTYYADSVKGRFTISRDNAKNTVYLQMNSLKPEDTAVYYCNAPRYYWISFARWPASYYYWGQGTQVTVSS | high polyreactivity |
| QVQLVESGGGLVQAGGSLRLSCAASGRTFDSNAMGWYRQAPGKERELVAAISGSGDTTYYADSVKGRFTISRDNAKNTVYLQMNSLKPEDTAVYYCAARWGRSSGGGDYWGQGTQVTVSS | low polyreactivity |
| QVQLVESGGGLVQAGGSLRLICAASGLIFYRNAMGWYRQAPGKERELVAAISSGGRTYYADSVKGRFTISRDNEKNTVYLQMNSLKPEDTAVYYCAASYWKPHRESGYDYWGQGTQVTVSS | high polyreactivity |
